Measured values published in a protein production outcome set (Wang et al. 2014).

Experiment: label from the status in PepcDB records

Row | Sequence | protein production
1 | MAERLGILVGGGPAPGINSVISSVTIEAINNGLEVIGIYDGFKHLVEGKTNMVKKLSIEDVSRIHIEGGSILRTSRVNPAKSEETLEKTVQTLKKLGIKYLVTIGGDDTAFSASKVCERSKGEIKVVHVPKTIDNDLPLPENMPTFGFETARHVATELVYNLMQDSRTTNRWYFVAMMGREAGHLALGVGKAASATITIIPEEFKEGVTLEEVCDVLDGAILKRKLMGRDDGVAVIGEGIAEKMDPEELANIPGVIVEKDPHGHLRLAEIPLATILKRAIERRYAERGERIHIVDVTIGYELRSARPIPFDIVYTRTLGYGAVRFLLGDYSDLPGGMVCVVGGRIKILPFDAFMDPKTGRTKVRVVDVRSEDYRVARKYMIRLEKKDLEDPETLEKLAKLAKMEPEEFKKKYWHTTELP | failed
2 | SSQRYMQILQIMPEAIFIHDNGKCNFINDKAIKLLEVKDVKDIIGKNIVDFIHEDYKELAQARIDKTMKTGMPCDFIEERLVTAMGKKIIIEAATTTFSHNNGTFITIIRDMT | failed
3 | LERDEQIRLQDDFLFRSQFNIGNIGIAITGIDQKWIKVNPRLCQMLKYSEDELLHMTWKQLTHPDDLDADVAKFEQMLAGNIDNYELDKRFIAKNGSLVYTHMTVACKRTNHQVLLVISGYLDVTAQTLADRE | failed
4 | MSLSKKTIYIAGLGLIGGSLALGIKRDHPDYEILGYNRSDYSRNIALERGIVDRATGDFKEFAPLADVIILAVPIKQTMAYLKELADLDLKDNVIITDAGSTKREIVEAAERYLTGKNVQFVGSHPMAGSHKSGAIAADVTLFENAYYIFTPTSLTKETTIPELKDILSGLKSRYVEIDAAEHDRVTSQISHFPHLLASGLMEQAADYAQAHEMTNHFAAGGFRDMTRIAESEPGMWASILMTNGPAVLDRIEDFKKRLDHVADLIKAEDESAIWEFFDNGRKKRKEMEIHKKGGVESAFDIFVDVPDREGHHHHHH | not failed
5 | MALAEDDGFYMGVGYQIGGAQQNIDNKGSTLRNNVINNFRQVGVGMAGGNGLLALATNTTMDALLGIGNQIVNTNTTVSNNNAELTQFKKILPQIEQRFETNKNAYSVQALQVYLSNVLYNLVNNSNNGSNNGVVPEYVGIIKVLYGSQNEFSLLATESVVLLNALTRVNLDSNSVFLKGLLAQMQLFNDTSSAKLGQIAENLKNGGAGSMLQKDVKTISDRIATYQENLKQLGGMLKNYDEPYLPQFGPGTSSQHGVINGFGIQVGYKQFFGNKRNIGLRYYAFFDYGFTQLGSLSSAVKANIFTYGAGTDFLWNIFRRVFSDQSLNVGVFGGIQIAGNTWDSSLRGQIENSFKEYPTPTNFQFLFNLGLRAHFASTMHRRFLSASQSIQHGMEFGVKIPAINQRYLRANGADVDYRRLYAFYINYTIGF | failed
6 | MEMNVKTNSSPTAPKPSKQTGWRIWWSLLRPHTLTAAFVPVFIGTAYSMQVGGINQIHLPLFLMMLLACLLIQAATNMFNEYFDYKRGLDHEGSVGIGGAIVRDGIQPKTVLNLAFGFFGIAILLGVYICINSSWWLAAIGLVCMAVAYLYTGGPLPIAYTPFGELTAGLFMGVIIIGISFFIQTGTVTSEVILLSIPSSILIGAILLANNIRDLDGDKENGRKTLAILVGRERAVGVLASMFIVSYIWTIALIIVGIVSPWMLIVFLSAPKAFKATKGFIGKSIPMEMVPAMIATAKTNTIFGFLMGIGLLLGYFL | failed
7 | GCTLSAEERAALERSKAIEKNLKEDGISAAKDVKLLLLGAGESGKSTIVKQMKIIHEDGFSGEDVKQYKPVVYSNTIQSLAAIVRAMDTLGIEYGDKERKADAKMVCDVVSRMEDTEPFSAELLSAMMRLWGDSGIQECFNRSREYQLNDSAKYYLDSLDRIGAADYQPTEQDILRTRVKTTGIVETHFTFKNLHFRLFDVGGQRSERKKWIHCFEDVTAIIFCVALSGYDQVLHEDETTNRMHESLKLFDSICNNKWFTDTSIILFLNKKDIFEEKIKKSPLTICFPEYTGPSAFTEAVAYIQAQYESKNKSAHKEIYTHVTCATDTNNIQFVFDAVTDVIIAKNLRGCGLY | failed
8 | MSLKKKIAVVTGATGGMGIEIVKDLSRDHIVYALGRNPEHLAALAEIEGVEPIESDIVKEVLEEGGVDKLKNLDHVDTLVHAAAVARDTTIEAGSVAEWHAHLDLNVIVPAELSRQLLPALRAASGCVIYINSGAGNGPHPGNTIYAASKHALRGLADAFRKEEANNGIRVSTVSPGPTNTPMLQGLMDSQGTNFRPEIYIEPKEIANAIRFVIDAGETTQITNVDVRPRIELADRKEGHHHHHH | not failed
9 | MPLLTIGDQFPAYQLTALIGGDLSKVDAKQPGDYFTTITSDEHPGKWRVVFFWPKDFTFVCPTEIAAFSKLNDEFEDRDAQILGVSIDSEFAHFQWRAQHNDLKTLPFPMLSDIKRELSQAAGVLNADGVADRVTFIVDPNNEIQFVSATAGSVGRNVDEVLRVLDALQSDELCACNWRKGDPTLDAGELLKASA | not failed
10 | MTETESKWDEKLKRFFKDYYWNEILQLANEYPDQRSLAVDFTDIEKFDRDLSREFLEHPGELISAAEAALKEIDLPVEKNLEQAHVRVIKIPNRIPIRELRSKHLTRFVAIEGMIRKATEVRPRITKAAFQCLRCGHLTIVEQNSFKFEEPFAGCEEETCGKKGPFKVSIEDSTFIDAQKLQIQESPENLKGGSQPQSLEVDSEDDLTGNVTPGDRVIINGVLKSRQRTLKDGKSTFYDLILEANSIERLDKDYDELEISAEEEEQILELSRDPAIYEKIISSIAPSIYGYEDIKEALALQLFSGVVKNLPDGSRTRGDIHMMLVGDPGIAKSQLLRYVVKLSPRGVFASGRSASASGLTAAAVKDDMNDGRWTIEGGALVMADMGVAAVDEMDKMRTEDKSALHEAMEQQTISIAKAGIIATLKSRCALLGAANPKYGRFDRYEGLADQINMPPALLSRFDLIFVLLDTPNHSLDSRIANHILQSHYAGELSEQRQKLPGSTISEEFVDAEMEIIEPVIAPEFMRKYIAFARKNVYPVMEEDTRHHLINFYTDLRRSGEGKNTPVPVTARQLEALVRLSEASARVRLSNIVTLEDAKRTIRIVMNCLKNVGVDPETGALDADILASGTSMSQRNKIKLLKDIIKKVSDRHPGSKAPLEEVYAEAESEHGIDRGHAEEYIKKMKQRGDILSPDQTHIRLIN | failed
11 | MGHHHHHHSHMALRDLCVVLLNGQHLEVKCDVESTVGAVFNAVTSFANLEELTYFGLAYMKSKEFFFLDSETR | failed
12 | MDQKSTTCLEALAKLSQQREHQTTPATLCSSEHFFANETIYSDATFLSTTEEAFISSPSSSTQGPKPGLKRVSTGPMTRILEGCQNDKPNSPELERVEEAEDNYSGTSSEEAFSQGIPYPHQVGGHGALSSFERGRVLKPAAKKEIDFYNFIYSDNLPSELEWLRTVTPKYFGQRKTQAKAKRILENQVTPFSQTSSVPVNTVLHIDRKDSERNIWKDQVGELVMDTNPWARACLLKELQKEDEVKSFIILEDLTCHLKKPCVLDCKMGTRHYDDDATEEKKKAHIEKATKTTSSSTGIRFTGMQVYKLPSHTFLFHDKYYGRQLKSHELKNELFEFFHNGVLLRVDIIEQFLSKLQWLYQHLENQHYFNFYSSSLLFVYEGDEMATCPISDVRMIDFAHTQRCVEEQQNDGYLFGLSNLIHLMKSLLEDERNEMR | failed
13 | MNLGILLGFLIYLVLLAYIGWWANRYTKTEEQYFIGGRKVHVLAATLSDKASDFSGWLMLGYPGTAFKTGLGAFWAAIGCLFGTLADYLLIGPRLRIYAGKFRSITLPDYLEARLKDNTKLIRILSAAIILIFMTAYVAAQFAAGGKTFSEAFGVSVTTGILITVIILTAYVITGGFFAVVWTDVVQAMFMLLTLIIMPILALAEIGGLDKATQIIGSVNPAKLHPFGGATGLAAIVFAIGYASWIVGYLGQPHIVTRYMSVEDPRKLRRPGIFISGIWTTIVLWGAFFAGFLGFALAINGSIKIDDPEKIVPAMAVHFLPSWIAGFVIAGIISAVMSTADSQLLVASSAIARDIYHKVLGQELGKKQMVNISRVVVAIVSLIAMWFAISGPKVIYQMVATAWGGLAVGFGPILTLSLWWKRVTKEAGIIGMGYGLISEVLLEAKIYGWAFNPNAPGFFGTLGKWFNGVPVFFINFFITLLVIIIVSLLTKPPEDVVKLHKELFKKVPIEKSEKIKVARAKSQAENVFDFAIASGLL | failed
14 | MGHHHHHHSHMSNAEDIRDLVVTFLEGLRKRSKYVVALQDNPNPAGEESGFLSFAKGDLIILDHDTGEQVMNSGWANGINERTKQRGDFPTDCVYVMPTVTMPPREIVA | failed
15 | AADERVKEMWAYSPSMDRNVPLVVITADESAGPRPVIYLLNGGDGGEGAANWVMQTDVLDFYLEKNVNVVIPMEGKFSYYTDWVEENASLGGKQMWETFLVKELPGPLEEKLNTDGQRAIAGMSMSATTSLLFPQHFPGFYDAAASFSGCAATSSLLPWEYLKLTLDRGNATPEQMWGPRGGEYNIYNDALINSDKLRGTELYVSNASGLAGEWESVDSPRFEGLNQQVQSIAMAETVVTGGIIEAATNKCTHDLKAKLDSAGIPADWNLRPTGTHSWGWWQDDLRGSWTTFARAFEL | failed
16 | MERIAMNPLMQQAIQFANDHETAWDRSVRGNFGVHLDDPPPWNRLLGPVHDRGPVSGVVVVDGQTLASWGEPERADLTFSVAKLYLSILAGVAHDRGLLPDVDEPVGRRVPGIGFDAGRNARITWRHLLQQTSEWEGERFGVPDQADRYRAVAFGIPPDGRKGDARPLQEPGTYWEYNDVRINQLSYALLHLFRRPLPEVFREAVTRPLGASEDWQWVGYDNAWVDIDGVRMPSVPGGTHWGGGMSISARDQALIGRMLLDEGRAADGRQVLSPAWIQAMRTPCDIAPYYGYLIWLNHERKVFPSVPASSFFGIGAGSSFTWVEPERRMVVIVRWLDAAYADALFGRILAAVDAHRAGLEHHHHHH | failed
17 | MAEPVQEELSVLAAIFCRPHEWEVLSRSETDGTVFRIHTKAEGFMDADIPLELVFHLPVNYPSCLPGISINSEQLTRAQCVTVKEKLLEQAESLLSEPMVHELVLWIQQNLRHILSQPETG | not failed
18 | MTKGESTMQRIAVLSDAETATGYRLAGATVIEASPEDALRTLEQAITDGGYGLIAVDTGLIPDPATATARIMRGRDLPILLPIPSLRDAFSSDTVDAKAYMGKLVRDTIGFDIKLLEHHHHHH | not failed
19 | MKYDVVVVGSGVAGPIVARDVAKAGFSVLLVDKKPAIGTPKQCAEGINVNVFKEFDIPYDKRFINREIYGARIYSPSGYTAELRYDKVSGVILERKVFDKMLAYYAAKAGADVWARTEVIDLLRKEGKIMGVKAKHEGELVEIEAKIIVAADGVESTVARLAGINTYAPPHEFDSAYEYEMIIEGYDPDLIHLWFGNEIAPRGYVWVFPKDEDRANVGIGINSDNEKTAKYYLDKWLKENNIPTKKILEINVGLVPVGGFVRELVKENVAVVGDAARQVNPVHGGGMYEAMKAANILAKWIVKALEEENLELLKNYTKEWWEVEGPKMERLLKLRRAMEKLTDEDIDVFVQLLGGTDLEKLAGGNYFEVVKALMKHPKVLMSKRRLEILKALL | not failed
20 | GLNHMTARYLREEHHMFRAAFRKFLEKEAYPHYNDWEKRGIIPRSFWAKMGENGFLCPWVDEKYGGLNADFAYSVVINEELEKVGSSLVGIGLHNDIVTPYIASYGTEEQKQKWLPKCVTGELITAIAMTEPGAGSDLANISTTAVKDGDYYIVNGQKTFITNGIHADLIVVACKTDPQAKPPHRGISLLVVERDTPGFTRGRKLEKVGLHAQDTAELFFQDAKVPAYNLLGEEGKGFYYLMEKLQQERLVVAIAAQTAAEVMFSLTKQYVKQRTAFGKRVSEFQTVQFRLAEMATEIALGRTFVDRVIEEHMAGKQIVTEVSMAKWWITEMAKRVAAEAMQLHGGYGYMEEYEIARRYRDIPVSAIYAGTNEMMKTIIARQLDL | not failed
21 | MSLSYVLPTLTYSLAASTLGLLQAIPGAFTGFRHTDSDSARGLLLGIFILTVSALLTLAVSAVFWLASFTLFRVLSRYREYAADRGAVAITGDPAALASALATIDDEMAAAPDHDLRAQDGGLDALYIAPIDETQFKDAPDFVANDVFPQTHPPTEARIERLEAMATEGPT | failed
